The source of these data is paper PMC3696110, “Hsp70 Oligomerization Is Mediated by an Interaction between the Interdomain Linker and the Substrate-Binding Domain” (PLoS ONE, 2013).

Data set [1] concerns P0DMV8. The data set is described as follows: SEC; analytical SEC, Superdex 75 10/300 GL, 4 °C, 50 mM Tris pH 7.4, 150 mM KCl, 5 mM MgCl2; 70 µM protein.
Data set [2] has as its system P0DMV8. Kind of data set: SEC; analytical SEC of SBD641 refolded after thermal denaturation; protein concentration of this panel not stated. A general note: SEC sorts molecules by how far they enter the pores of the column.
Data set [3] relates to P0DMV8. Kind of data set: SEC; analytical SEC, Superdex 75 10/300 GL, 4 °C, 50 mM Tris pH 7.4, 150 mM KCl, 5 mM MgCl2; 6 µM protein.
In data set [4] the test system is P0DMV8. The data set is described as follows: native MS; nESI-MS, 150 mM ammonium acetate pH 7.4, protein 6 µM (6-15 µM); abundances from the most abundant charge states.
Data set [5] relates to P0DMV8. Kind of data set: SEC; analytical SEC after 1 h at room temperature with a 14-fold excess of NR peptide; protein concentration of this panel not stated.
Data set [6] addresses full-length human Hsp70 (Hsp70 1A) (human) (UniProt P0DMV8). The data set is described as follows: SEC; analytical SEC, Superdex 75 10/300 GL, 4 °C, 50 mM Tris pH 7.4, 150 mM KCl, 5 mM MgCl2; 70 µM protein.
Data set [7] shares this target. The data set is described as follows: SEC; analytical SEC, Superdex 75 10/300 GL, 4 °C, 50 mM Tris pH 7.4, 150 mM KCl, 5 mM MgCl2; 6 µM protein.
Data set [8] shares this target. The data set is described as follows: SEC; analytical SEC, Superdex 75 10/300 GL, 4 °C; 220 µM protein.
The target is the same in data set [9]. Kind of data set: native MS; nESI-MS, 150 mM ammonium acetate pH 7.4, protein 6 µM (6-15 µM); abundances from the most abundant charge states.
The target of data set [10] is dansyl-NR peptide (NRLLLTG, N-terminally labelled with dansyl). The data set is described as follows: other fluorescence titration; chaperone titrated into 2 µM dansyl-NR peptide, 1 h at 25 °C, 50 mM Tris pH 7.4, 150 mM KCl, 5 mM MgCl2; single-site fit, apparent Kd.
For data set [11], the target named is FL-Hsp70 2LD, full-length human Hsp70 with Leu395 and Leu397 substituted by aspartic residues (human) (UniProt P0DMV8). Kind of data set: SEC; analytical SEC, Superdex 75 10/300 GL, 4 °C; 220 µM protein.
The target of data set [12] is ΔLSBD641 (394-641), SBD641 of human Hsp70 without the first ten residues of the interdomain linker (human) (UniProt P0DMV8). The data set is described as follows: SEC; analytical SEC, Superdex 75 10/300 GL, 4 °C, 50 mM Tris pH 7.4, 150 mM KCl, 5 mM MgCl2; 70 µM protein.
The target is the same in data set [13]. The data set is described as follows: SEC; fraction of oligomeric species set beside DLS (Figure S3C), without NR peptide; 20 µM protein named for the panel.
Data set [14] has the same target. Kind of data set: SEC; analytical SEC, Superdex 75 10/300 GL, 4 °C, 50 mM Tris pH 7.4, 150 mM KCl, 5 mM MgCl2; 6 µM protein.
Data set [15] shares this target. The data set is described as follows: native MS; nESI-MS, 150 mM ammonium acetate pH 7.4, protein 6 µM (6-15 µM); abundances from the most abundant charge states.
The target in data set [16] is SBD556 (384-556) of human Hsp70 with the L542Y mutation (human) (UniProt P0DMV8). The data set is described as follows: SEC; analytical SEC, Superdex 75 10/300 GL, 4 °C, 50 mM Tris pH 7.4, 150 mM KCl, 5 mM MgCl2; 70 µM protein.
Data set [17] has the same target. The data set is described as follows: SEC; analytical SEC, Superdex 75 10/300 GL, 4 °C, 50 mM Tris pH 7.4, 150 mM KCl, 5 mM MgCl2; 6 µM protein.
Data set [18] shares this target. Kind of data set: native MS; nESI-MS, 150 mM ammonium acetate pH 7.4, protein 6 µM (6-15 µM); abundances from the most abundant charge states.
The target in data set [19] is SBD641 (384-641), full-length substrate-binding domain of human Hsp70 with the interdomain linker (human) (UniProt P0DMV8). The data set is described as follows: SEC; analytical SEC, Superdex 75 10/300 GL, 4 °C, 50 mM Tris pH 7.4, 150 mM KCl, 5 mM MgCl2; 70 µM protein.
Data set [20] shares this target. The data set is described as follows: SEC; fraction of oligomeric species set beside DLS (Figure S3C), without NR peptide; 20 µM protein named for the panel.
Data set [21] shares this target. Kind of data set: SEC; fraction of oligomeric species set beside DLS (Figure S3C), with 14-times excess of NR peptide; 20 µM SBD641 named for the panel.
Data set [22] shares this target. Kind of data set: SEC; analytical SEC, Superdex 75 10/300 GL, 4 °C, 50 mM Tris pH 7.4, 150 mM KCl, 5 mM MgCl2; 6 µM protein.
Data set [23] has the same target. Kind of data set: native MS + SEC; oligomerization constant estimated from the populations of Table 1; equilibrium of monomer, dimer and trimer.
For data set [24] the target is unchanged. Kind of data set: native MS; nESI-MS, 150 mM ammonium acetate pH 7.4, protein 6 µM (6-15 µM); abundances from the most abundant charge states.
Data set [25] shares this target. Kind of data set: SEC; analytical SEC after 1 h at room temperature with a 14-fold excess of NR peptide; protein concentration of this panel not stated.
The target is the same in data set [26]. The data set is described as follows: SEC + other: dynamic light scattering; fraction of oligomers (SEC) and apparent hydrodynamic diameter (DLS) of SBD641 against protein concentration; extrapolation to 0.5 oligomer fraction.
Data set [27] shares this target. The data set is described as follows: native MS; nESI-MS, 150 mM ammonium acetate pH 7.4, protein 6 µM (6-15 µM); abundances from the most abundant charge states. The source holds these as a separate data set.

Read-outs that look alike come from different tables or passages of the source. Some results are limits rather than exact numbers.

Chain of FL-Hsp70 2LD, full-length human Hsp70 with Leu395 and Leu397 substituted by aspartic residues (P0DMV8 whole entry): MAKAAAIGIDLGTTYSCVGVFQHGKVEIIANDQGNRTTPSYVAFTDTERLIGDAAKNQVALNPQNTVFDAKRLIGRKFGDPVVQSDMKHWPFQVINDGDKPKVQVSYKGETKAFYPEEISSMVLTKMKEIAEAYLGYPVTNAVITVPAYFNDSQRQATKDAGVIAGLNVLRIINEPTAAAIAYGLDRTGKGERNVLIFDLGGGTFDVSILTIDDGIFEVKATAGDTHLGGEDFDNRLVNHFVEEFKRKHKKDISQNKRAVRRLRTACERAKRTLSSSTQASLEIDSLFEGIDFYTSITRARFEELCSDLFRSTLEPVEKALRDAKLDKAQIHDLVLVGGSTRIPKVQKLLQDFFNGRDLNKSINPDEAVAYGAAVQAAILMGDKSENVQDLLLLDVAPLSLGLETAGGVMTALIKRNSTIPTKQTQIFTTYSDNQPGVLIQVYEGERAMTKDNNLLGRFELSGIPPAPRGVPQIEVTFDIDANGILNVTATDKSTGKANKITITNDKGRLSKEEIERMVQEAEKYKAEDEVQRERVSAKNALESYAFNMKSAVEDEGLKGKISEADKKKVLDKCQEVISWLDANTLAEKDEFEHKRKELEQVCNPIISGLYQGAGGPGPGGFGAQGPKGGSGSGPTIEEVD

In the case of “SBD641 (384-641), full-length substrate-binding domain of human Hsp70 with the interdomain linker”, the % monomer in the data set on P0DMV8 [1] is 23%; in the data set with P0DMV8 [2], “a dramatic increase in the monomeric fraction of the refolded protein compared to the native protein (from 37% to 71%)”; with P0DMV8 [3] it was 37%; with P0DMV8 [4], 46%; with P0DMV8 [5], “the monomeric fraction increases from 37% to 58% in the presence of peptide”.
For “ΔLSBD641 (394-641), SBD641 of human Hsp70 without the first ten residues of the interdomain linker”, the % monomer stood at 86% with P0DMV8 [1], 91% with P0DMV8 [3] and 92% with P0DMV8 [4].
On to “full-length human Hsp70 (Hsp70 1A) (from UniProt P0DMV8 1-641) (natural protein)”, for which the results for the % dimer in data set [6], in data set [7] and in data set [9] were 7%, 1% and 2%, respectively. Moreover, the % oligomeric species in data set [6] is 10%; in data set [8], 35%. Moreover, the % total oligomers in data set [6] stood at 7%; in data set [7] it was 1%; in data set [9], 2%. Further, the % trimer in data set [9] was -0%. Further, in data set [10], the Kd stood at 9 µM.
As for “FL-Hsp70 2LD, full-length human Hsp70 with Leu395 and Leu397 substituted by aspartic residues (from UniProt P0DMV8 1-641) (natural protein)”, the % oligomeric species in data set [11] is less than 9%.
Regarding “SBD556 (384-556) of human Hsp70 with the L542Y mutation”, the results for the % monomer in the data set with P0DMV8 [1], with P0DMV8 [3] and in the data set on P0DMV8 [4] were 93%, 97% and 82%, respectively.
For full-length human Hsp70 (Hsp70 1A) the same measures were 93%, 99% and 98%.
Turning to “ΔLSBD641 (394-641), SBD641 of human Hsp70 without the first ten residues of the interdomain linker (from UniProt P0DMV8 394-641) (domain or fragment)”, the values for the % dimer in [12], in [14] and in data set [15] were 14%, 9% and 8%, respectively. Also, the % total oligomers turned out to be 14% in data set [12], 9% in [14] and 8% in data set [15]. The fraction of oligomeric species in data set [13] turned out to be 0.1. Moreover, the % trimer in data set [15] was -0%. In addition, the Kd in data set [10] came to 8 µM.
In data set [16], “SBD556 (384-556) of human Hsp70 with the L542Y mutation (from UniProt P0DMV8 384-556) (domain or fragment)” registered a % dimer of 7% and a % total oligomers of 7%. In addition, in data set [17], the % dimer turned out to be 3% and the % total oligomers came to 3%. In data set [18], this substance displayed a % dimer of 16%, a % total oligomers of 18% and a % trimer of 2%. In addition, in data set [10], the Kd worked out at 53 µM.
Take “SBD641 (384-641), full-length substrate-binding domain of human Hsp70 with the interdomain linker (from UniProt P0DMV8 384-641) (domain or fragment)”: the % dimer worked out at 55% in data set [19], 44% in [22], 40% in data set [24] and 24% in data set [25]. The % higher-order oligomers in [19] was 22%; in [25], 18%. Moreover, the % total oligomers in data set [19] stood at 77%; in data set [22], 63%; in data set [24], 54%. Besides, the fraction of oligomeric species in data set [20] stood at 0.7; in data set [21] it was 0.5. Also, the Kd was 5 to 10 µM in data set [23], 1 to 10 µM in data set [26] and 11 µM in data set [10]. Also, the % trimer in [24] turned out to be 10%; in [27], 12%. This substance came in with a % tetramer in [27] of 2%.
